Read-outs that look alike come from different tables or passages of the source.
T1: human Claudin 3 (human, UniProt O15551 1-220)
T1 construct: whole, on cells; also called CLDN3
T1 sequence (looked up): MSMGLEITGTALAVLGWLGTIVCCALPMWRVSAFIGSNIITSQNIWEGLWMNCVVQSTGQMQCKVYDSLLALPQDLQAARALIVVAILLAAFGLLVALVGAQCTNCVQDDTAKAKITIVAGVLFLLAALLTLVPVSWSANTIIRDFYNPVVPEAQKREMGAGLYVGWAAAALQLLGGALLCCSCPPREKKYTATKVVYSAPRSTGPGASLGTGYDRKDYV

T2: human Claudin 6 (human, UniProt P56747 1-220)
T2 sequence (looked up): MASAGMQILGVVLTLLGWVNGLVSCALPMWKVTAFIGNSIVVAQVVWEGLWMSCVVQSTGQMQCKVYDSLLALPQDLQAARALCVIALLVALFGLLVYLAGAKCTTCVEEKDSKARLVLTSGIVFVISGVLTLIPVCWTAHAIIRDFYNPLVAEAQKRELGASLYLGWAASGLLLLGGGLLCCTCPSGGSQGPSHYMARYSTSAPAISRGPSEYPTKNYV

T3: human Claudin 9 (human, UniProt O95484 1-217)
T3 construct: whole, on cells; also called CLDN9; CLND9
T3 sequence (looked up): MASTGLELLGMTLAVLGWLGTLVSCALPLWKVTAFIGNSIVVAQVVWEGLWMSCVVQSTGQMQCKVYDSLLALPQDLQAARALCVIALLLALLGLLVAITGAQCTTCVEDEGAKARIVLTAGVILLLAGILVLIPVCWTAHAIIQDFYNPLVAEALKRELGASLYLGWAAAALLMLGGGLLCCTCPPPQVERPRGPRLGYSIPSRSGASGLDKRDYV


Legend:
[1] = biological target: T1, human Claudin 3; assay: flow cytometry, CHOK1/H_CLDN3 cells, Ab titrated from 100 nM
Experimental: (§1) In this example, cell-based binding of hu Abs on human CLDN3 expressing cells were assessed using flow cytometry.
(§2) Briefly, the CHOK1/H_CLDN3 cells were incubated with hu-Abs (from 100 nM, 6 folds dilution, 8 points). After incubation at 4° C. for 60 minutes. Cells were pelleted and washed twice with 2% FBS/PBS buffer, and stained with fluorescent conjugated secondary antibody at 4° C. for 30 minutes. After that the cells were washed twice and resuspended in 80 μL of 2% FBS/PBS buffer. Fluorescent signal of binding was detected using Agilent. The EC50 was calculated using the GraphPad software.

[2] = biological target: T2, human Claudin 6; assay: flow cytometry, OVCAR3 cells (endogenous CLDN6), Ab titrated from 100 nM
Experimental: In this example, FACS binding of chimeric Abs to Ovcar3 and Ov90 cells with claudin 6 endogenous expression were assessed using flow cytometry.
as §2, with “Claudin 6 endogenous expression cell line” for “Briefly, the CHOK1/H_CLDN3 cells”, “chimeric Abs” for “hu-Abs”, “6-fold” for “6 folds”, “points) for 60 minutes” for “points). After incubation”, “C.” for “C. for 60 minutes.”

[3] = biological target: T3, human Claudin 9; assay: flow cytometry, HEK293/H_CLDN9 cells, Ab titrated from 100 nM
[4] = biological target: T3, human Claudin 9; assay: as above; remark: listed apart in the source
Experimental: (§3) In this example, cell based binding of chimeric Abs on human CLDN6 & CLND9 over-expressing cell line were assessed using flow cytometry.
as §2, with “the” for “the CHOK1/H_CLDN3”, “chimeric Abs” for “hu-Abs”, “6-fold” for “6 folds”, “points) for 60 minutes” for “points). After incubation”, “C.” for “C. for 60 minutes.”, “software (LaJolla, CA).” for “software.”

[5] = biological target: T2, human Claudin 6; assay: cell-based or functional assay
[6] = biological target: T2, human Claudin 6; assay: flow cytometry, HEK293/H_CLDN6 cells, Ab titrated from 100 nM
Experimental: as §3
as §2, with “the” for “the CHOK1/H_CLDN3”, “chimeric Abs” for “hu-Abs”, “6-fold” for “6 folds”, “points) for 60 minutes” for “points). After incubation”, “C.” for “C. for 60 minutes.”, “software (LaJolla, CA).” for “software.”

[7] = biological target: T2, human Claudin 6; assay: cell-based or functional assay; remark: listed apart in the source
[8] = biological target: T2, human Claudin 6; assay: flow cytometry, HEK293/H_CLDN6 cells, Ab titrated from 100 nM; remark: listed apart in the source
Experimental: In this example, cell-based binding of humanized antibodies (hu Abs) on human CLDN6 expressing cells were assessed using flow cytometry.
as §2, with “HEK293/H_CLDN6” for “CHOK1/H_CLDN3”

[9] = biological target: T1, human Claudin 3; assay: flow cytometry, CHOK1/H_CLDN3 cells
Experimental: as §1, §2

Row | Top MFI [1] | Top MFI [3] | Top MFI [4] | Top MFI [6] | Molecule | other results
1 | 128 | 140 |  |  | hIgG1 Isotype (antibody) | Top MFI [2]: 126; Top MFI ([2]; record 2): 101
2 |  |  | 28800 | 161000 | 67-C12E11 (antibody, V domains shown, Tested as chimeric antibody) VH: EVQLQQSGPELVKPGASVKISCKTSGYTFTEYTMHWVKQSHGKSLEWIGGINPNNGGTSYNQKFKGKATLTVDKSSSTAYMELRSLTSEDSAVYYCARGMVVAFYFDSWGQGTTLTVSS VL: DIQMTQSPASQSASLGESVTITCLASQTIGSWLAWYQQKPGKSPQLLIYAATSLADGVPSRFSGSGSGTKFSFKISSLQAEDFVSYYCQQLYSTPYTFGGGTKLEIK | Top MFI [2]: 165; internalization Top RLU (HEK293/H_CLDN6) [5]: 446000 RLU; Inhibition Rate (%) (HEK293/H_CLDN6) [7]: 83.9%
3 |  |  | 102000 | 264000 | 59-A2E6 (antibody, V domains shown, Tested as chimeric antibody) VH: EVQLQQSGPELVKPGASVKISCKTSGYTFTEYTMHWVKQSHGKSLEWIGGINPKNGGTSYNQKFKGKATLTVDKSSSTVYMEFRSLTTEDSAVYYCARGMLVAFYFDCWGQGTTLTVSS VL: DIQMTQSPASQSASLGESVTITCLASQTIGTWLAWYQQKPGKSPQLLIYAATSLADGVPSRFSGSGSGTKFSFKISSLQAEDFVSYYCQQLYSTPYTFGGGTKLEIK | 
4 |  |  | 105000 | 257000 | 81-H10F8 (antibody, V domains shown, Tested as chimeric antibody) VH: EVQLQQSGPELVKPGASVKISCKTSGYTFTEYTMHWVKQSHGKSLEWIGGINPNNGGTSYNQKFKGKATLTVDKSSRTAYMELRSLTSEDSAVYYCARGMVVAFYFDCWGQGTTLTVSS VL: DIQMTQSPASQSASLGESVTITCLASQTIGTWLAWYQQKPGKSPQLLIYAATGLADGVPSRFSGGGSGTKFSFKISSLQVEDFVSYYCQQLYSTPYTFGGGTKLEIK | 
5 |  |  | 113000 | 285000 | 85-H10A5 (antibody, V domains shown, Tested as chimeric antibody) VH: EVQLQQSGPELVKPGASVKISCKTSGYTFTEYPMHWVKQSHEKSLEWIGGINPKNGDANSNQKFKGKATLTVDKSSSTAYMELRSLTSEDSAVYYCARGWLLLFDVWGAGTMVTVSS VL: DIQMTQSSSSFSVSLGDRVTISCKASEDIYNRLAWYQQKPGNAPRLLISGATSLETGIPSRFSGSGSGKDYTLSITTLQTEDVAAYYCQQYWSSPLTFGAGTKLELR | 
6 |  |  | 93300 | 117000 | 23-B2F11 (antibody, V domains shown, Tested as chimeric antibody) VH: EVQLQQSGPELVKPGASVKISCKTSGYTFTEYTMHWVKQSHGRSLEWIGGINPNNGDTIYNQKFKGKATLTVDKSSSTAYMELRSLTSEDSAVYYCARRGGYGNFNFDYWGQGTTLTVSS VL: DIQMTQSSSSFSVSLRDRVTITCKASEDIYNRLAWYQQKPGNAPRLLISGATSLETGVPSRFSGSGSGKDYTLSITSLQTEDVATYYCQQYWSSPYTFGGGTKVEIK | 
7 | 297 | 5810 |  |  | 97-C10E1-2-P1.z9 (antibody, V domains shown) VH: QVQLQQSGAEVKKPGASVKVSCKASGYAFTGYTMNWVRQAPGQNLEWIGLSNPYNAGTIYNQKFKGRVTLTVDKSTSTVYMELLSLRSEDTAVYYCARNYYYGSSYAYYYAMDYWGQGTTVTVSS VL: DAQMTQSPSSLSASVGDRVTITCRSSTGAVTTSNYANWVQQKPGKAFKGLIGGTNNRAPGVPARFSGSLSGTDAALTISSLQPEDFATYFCALWYSNHWVFGGGTKVEIK | Top MFI [8]: 159000; binding result [9]: no binding (tested: 100 nM (highest concentration tested))
8 | 263 | 9160 |  |  | 97-C10E1-2-P1.z4 (antibody, V domains shown) VH: QVQLVQSGAEVKKPGASVKVSCKASGYAFTGYTMNWVRQAPGQGLEWIGLSNPYNAGTIYNQKFKGRVTMTVDKSTSTVYMELSSLRSEDTAVYYCARNYYYGSSYAYYYAMDYWGQGTTVTVSS VL: DAQMTQSPSSLSASVGDRVTITCRSSTGAVTTSNYANWVQQKPGKAFKGLIGGTNNRAPGVPARFSGSLSGTDAALTISSLQPEDFATYFCALWYSNHWVFGGGTKVEIK | Top MFI [8]: 185000; binding result [9]: no binding (tested: 100 nM (highest concentration tested))
9 | 249 | 1660 |  |  | 97-C10E1-2-P1.z7 (antibody, V domains shown) VH: QVQLQQSGAEVKKPGASVKVSCKASGYAFTGYTMNWVRQAPGQNLEWIGLSNPYNAGTIYNQKFKGRVTLTVDKSTSTVYMELLSLRSEDTAVYYCARNYYYGSSYAYYYAMDYWGQGTTVTVSS VL: EAVVTQSPATLSVSPGERATLSCRSSTGAVTTSNYANWVQEKPGQAFRGLIGGTNNRAPGIPARFSGSLSGDEATLTISSLQSEDFAVYFCALWYSNHWVFGGGTKVEIK | Top MFI [8]: 181000; binding result [9]: no binding (tested: 100 nM (highest concentration tested))
10 |  |  | 23500 | 258000 | 83-F6A6 (antibody, V domains shown, Tested as chimeric antibody) VH: QVQLQQSAPELARPGASVRMSCKASGYTFTTYTMHWVKQRPGQGLEWIGFIIPSSGYTEYNQNLKDKTTLTADKASSTAYMQLTSLTSEDSAVYYCARQFSLITTGFGYALDYWGQGTSVTVSS VL: DIVMTQSRKFMSTSVGDRVSITCKASQDVSTAVAWYQQKPGQSPKLLLYWASTRHTGVPDRFTGSGSGTDYTLTISSVQAEDLALYYCQQHYSTPLTFGAGTKLELK | Top MFI [2]: 227; internalization Top RLU (HEK293/H_CLDN6) [5]: 710000 RLU; Inhibition Rate (%) (HEK293/H_CLDN6) [7]: 78.6%
11 |  |  |  | 62100 | 36-E6A6 (antibody, V domains shown, Tested as chimeric antibody) VH: QVQLQQSGGEVVRPGTSVKVSCKASGYAFTNNLIEWVKQRPGQGLEWIGVIHPGSGGSNYNEKFKNKATLTTDKSSSTAYIQLSSLTSDDSAVYFCARRGRDYAMDYWGQGTSVTVSS VL: EIVLTQSPAIMSASLGEKVTMSCRASSSVNSIYWYQQKSDASPKLWIYYTSNLAPGVPARFSGSGSGNSYSLTIRSMEGEDAATYYCQQFTSSPLTFGAGTKLELK | 
12 |  |  | 341000 | 379000 | 59-H12C5 (antibody, V domains shown, Tested as chimeric antibody) VH: EVQLVESGGGLVQPGGSLKLSCAASGFTFSSHGMSWVRQTADRGLELVASINSNGGRTYYPDSMKGRFTISRDNAKNTLYLQLSSLQPEDTALYYCACYYDNTYYAMDYWGQGTSLTVSS VL: QIVLTQSPAIMSASLGERVTMTCTASSSVSSSSLHWYQQKPGSSPKLWIYTTSTLASGVPARFSGSGSGTSYSLTISSMEAEDAATYYCHQYHRSPPTFGGGTKLEIK | 

Source: patent US20240317851A1 (LANOVA MEDICINES, published 2024)
